Numbering of substitutions follows the chain as printed.
Key:
[1] = biological target: T1, Rad4-Rad23 WT crosslinkable (<SC32>) (UniProt P14736;P32628 101-632;1-77+230-398, V131C;C132S;internal_change); test: fluorescence lifetime FRET; non-covalent, equimolar; EMSA: 5 mM BTP-HCl pH 6.8, 75 mM NaCl, 5 mM DTT, 5% glycerol, 0.74 mM CHAPS, 500 ug/ml BSA, room temperature 20 min, 5 nM labeled DNA, 1000 nM cold CH7_NX; settings: protein: recombinant; tags: N-terminal His tag on Rad4 (fluorescence); copies: 1;1; label: tCo donor, tCnitro acceptor; 3-bp CCC/CCC mismatch
T1 sequence 1: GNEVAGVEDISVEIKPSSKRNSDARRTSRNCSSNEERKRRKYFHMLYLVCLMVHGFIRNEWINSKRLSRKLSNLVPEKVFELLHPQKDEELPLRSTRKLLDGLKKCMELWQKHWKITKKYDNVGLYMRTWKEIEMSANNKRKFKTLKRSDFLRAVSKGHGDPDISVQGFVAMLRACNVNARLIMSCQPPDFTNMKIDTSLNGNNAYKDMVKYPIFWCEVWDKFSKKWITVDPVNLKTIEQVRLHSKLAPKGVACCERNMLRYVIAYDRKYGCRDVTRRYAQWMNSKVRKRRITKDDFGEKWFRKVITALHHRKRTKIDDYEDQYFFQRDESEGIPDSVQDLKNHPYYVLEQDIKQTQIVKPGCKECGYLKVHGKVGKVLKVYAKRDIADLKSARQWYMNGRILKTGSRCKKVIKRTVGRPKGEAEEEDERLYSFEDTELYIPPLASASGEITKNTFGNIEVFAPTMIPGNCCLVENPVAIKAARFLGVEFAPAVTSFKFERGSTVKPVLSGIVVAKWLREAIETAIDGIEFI
T1 sequence 2: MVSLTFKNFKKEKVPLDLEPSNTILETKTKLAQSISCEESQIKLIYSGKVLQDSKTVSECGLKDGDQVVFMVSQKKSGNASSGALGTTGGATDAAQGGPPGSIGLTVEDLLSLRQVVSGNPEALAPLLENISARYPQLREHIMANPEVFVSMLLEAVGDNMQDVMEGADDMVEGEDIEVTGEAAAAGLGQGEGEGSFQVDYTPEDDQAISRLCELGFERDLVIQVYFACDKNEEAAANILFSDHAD

[2] = biological target: T2, Rad4-Rad23 WT (no thrombin cleavage) (UniProt P14736;P32628 101-632;1-77+230-398, internal_change); test: competitive EMSA; apparent Ks; 1000 nM cold CH7_NX competitor; EMSA: 5 mM BTP-HCl pH 6.8, 75 mM NaCl, 5 mM DTT, 5% glycerol, 0.74 mM CHAPS, 500 ug/ml BSA, room temperature 20 min, 5 nM labeled DNA, 1000 nM cold CH7_NX; settings: protein: recombinant; tags: N-terminal His tag on Rad4; copies: 1;1; label: 32P; 3-bp CCC/CCC mismatch; 5' overhang 1 nt at both ends
T2 sequence 1: T1 sequence 1 with C31V, S32C
T2 sequence 2: T1 sequence 2

[3] = biological target: T3, Rad4-Rad23 delta-beta-hairpin3 (<137>) (UniProt P14736;P32628 101-598+606-632;1-77+230-398, internal_change;internal_change); test: as above; settings: protein: recombinant; tags: N-terminal His tag on Rad4; copies: 1;1; label: 32P; 3-bp CCC/CCC mismatch; 5' overhang 1 nt at both ends
T3 sequence 1: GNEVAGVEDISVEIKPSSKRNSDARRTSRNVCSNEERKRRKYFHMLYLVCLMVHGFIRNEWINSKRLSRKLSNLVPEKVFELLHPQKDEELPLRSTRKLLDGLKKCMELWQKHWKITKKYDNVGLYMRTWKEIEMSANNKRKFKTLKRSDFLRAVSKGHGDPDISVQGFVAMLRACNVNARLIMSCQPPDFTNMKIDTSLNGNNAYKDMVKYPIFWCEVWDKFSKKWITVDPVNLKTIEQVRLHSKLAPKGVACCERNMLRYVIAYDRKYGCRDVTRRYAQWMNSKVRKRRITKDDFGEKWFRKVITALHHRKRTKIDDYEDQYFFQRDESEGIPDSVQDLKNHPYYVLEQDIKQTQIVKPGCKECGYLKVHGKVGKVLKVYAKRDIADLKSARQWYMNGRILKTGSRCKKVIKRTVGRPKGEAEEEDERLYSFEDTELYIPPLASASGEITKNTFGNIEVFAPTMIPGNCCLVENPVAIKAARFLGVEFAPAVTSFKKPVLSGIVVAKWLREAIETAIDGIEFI
T3 sequence 2: T1 sequence 2

[4] = biological target: T4, Rad4-Rad23 delta-beta-hairpin2 (<130>) (UniProt P14736;P32628 101-514+528-632;1-77+230-398, internal_change;internal_change); test: as above; settings: protein: recombinant; tags: N-terminal His tag on Rad4; copies: 1;1; label: 32P; 3-bp CCC/CCC mismatch; 5' overhang 1 nt at both ends
T4 sequence 1: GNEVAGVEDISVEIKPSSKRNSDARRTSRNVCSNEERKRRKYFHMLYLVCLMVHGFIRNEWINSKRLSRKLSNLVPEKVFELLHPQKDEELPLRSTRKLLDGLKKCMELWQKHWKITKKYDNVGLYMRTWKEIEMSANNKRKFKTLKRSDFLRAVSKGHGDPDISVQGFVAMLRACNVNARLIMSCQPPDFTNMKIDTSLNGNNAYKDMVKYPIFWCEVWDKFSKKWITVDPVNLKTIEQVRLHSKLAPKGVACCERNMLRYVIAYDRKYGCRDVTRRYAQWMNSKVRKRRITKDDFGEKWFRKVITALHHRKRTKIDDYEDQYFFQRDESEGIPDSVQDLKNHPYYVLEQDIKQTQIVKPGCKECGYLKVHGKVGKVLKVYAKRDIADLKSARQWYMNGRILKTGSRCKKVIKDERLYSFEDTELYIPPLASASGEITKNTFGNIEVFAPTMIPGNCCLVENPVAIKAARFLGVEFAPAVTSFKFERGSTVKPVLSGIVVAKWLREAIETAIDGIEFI
T4 sequence 2: T1 sequence 2

[5] = biological target: T2, Rad4-Rad23 WT (no thrombin cleavage); test: competitive EMSA; apparent Kns; 1000 nM cold CH7_NX competitor; EMSA: 5 mM BTP-HCl pH 6.8, 75 mM NaCl, 5 mM DTT, 5% glycerol, 0.74 mM CHAPS, 500 ug/ml BSA, room temperature 20 min, 5 nM labeled DNA, 1000 nM cold CH7_NX; settings: protein: recombinant; tags: N-terminal His tag on Rad4; copies: 1;1; label: 32P; fully matched; 5' overhang 1 nt at both ends
[6] = biological target: T3, Rad4-Rad23 delta-beta-hairpin3 (<137>); test: as above; settings: protein: recombinant; tags: N-terminal His tag on Rad4; copies: 1;1; label: 32P; fully matched; 5' overhang 1 nt at both ends
[7] = biological target: T4, Rad4-Rad23 delta-beta-hairpin2 (<130>); test: as above; settings: protein: recombinant; tags: N-terminal His tag on Rad4; copies: 1;1; label: 32P; fully matched; 5' overhang 1 nt at both ends

B1: CCC/CCC_G*_DA (dsDNA)
DNA 1: TTGACTCGACATCCCCCGGTACAA
DNA 2: ATTGTACCCCCGGATGTCGAGTCA
modifications: disulfide-modified guanine G* in top strand
binding result [1]: binds

B2: CCC/CCC mismatched (CH10_NX) (dsDNA)
DNA 1: TTGACTCGACATCCCCCGCTACAA
DNA 2: ATTGTAGCCCCGGATGTCGAGTCA
Kd [2]: ~60 nM
Kd [3]: ~200 nM
Kd [4]: ~260 nM

B3: CCC/GGG matched (dsDNA)
DNA 1: TTGACTCGACATCCCCCGCTACAA
DNA 2: ATTGTAGCGGGGGATGTCGAGTCA
Kd [5]: ~370 nM
Kd [6]: ~510 nM
Kd [7]: ~700 nM

Reference: publication PMC7708039, “Tethering-facilitated DNA ‘opening’ and complementary roles of β-hairpin motifs in the Rad4/XPC DNA damage sensor protein”
